This test has as its target T1, FcγRI with His tag (UniProt P12314 16-288).
T1 construct: Bought protein; also called FcγRI (Sino Biological #10256-H08H)
Put plainly: SPR, His-tagged FcγRI captured by anti-His antibody on the chip, antibody as analyte [row FcγRI, column GPC3×CD3 κλ003]. The protocol:
50 μg/mL His-Tag antibodies were conjugated to a CMS chip through amino groups, and recombinant proteins FcγRI, FcγRIIAH131, and FcγRIIIAV158 with His tags (Sino Biological, #10256-H08H/10374-H08H1/10389-H08H1) were respectively captured for a capture time of 40 s at a flow rate of 10 μL/min. After the baseline was stable, the gradient-diluted antibody (the initial concentration of 37.5 μg/mL, 2-fold dilution) flowed through the chip at a flow rate of 30 μL/min, with a binding time of 120 s and a dissociation time of 200 s. The affinity constants were obtained by fitting them with Biacore evaluation software. It can be seen from FIG. 22 that the GPC3×CD3κλ bispecific antibody has no binding to FcγRI, FcγRIIAH131, and FcγRIIIAV158; The wild-type IgG4 control antibody can bind to FcγRI with high affinity and weakly bind to Fcγ RIIAH131.
A general note: In SPR one partner is held on a chip, and binding of the other changes the refractive index at the surface.

The record followed here is patent US20240043568A1 (KEYMED BIOSCIENCES, published 2024).

T1 sequence (P12314 16-288 limits assumed): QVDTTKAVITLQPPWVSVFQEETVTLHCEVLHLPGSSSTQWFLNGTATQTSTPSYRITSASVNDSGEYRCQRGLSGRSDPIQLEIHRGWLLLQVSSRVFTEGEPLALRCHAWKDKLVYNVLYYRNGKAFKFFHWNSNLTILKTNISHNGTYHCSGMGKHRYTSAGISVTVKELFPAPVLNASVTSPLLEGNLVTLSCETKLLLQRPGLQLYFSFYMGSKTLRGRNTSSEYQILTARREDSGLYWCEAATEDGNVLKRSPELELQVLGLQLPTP

B1: GPC3×CD3 κλ003 (bispecific antibody, human IgG4 S228P, kappa, lambda)
light 1: DVVMTQSPLSLPVTPGEPASISCRSSQSIVHSNGNTYLEWYLKKPGQSPQLLIYKVSNRFSGVPDRFSGSGSGTDFTLKISRVEAEDVGVYFCLQVTHVPLTFGQGTKLEIKRTVAAPSVFIFPPSDKKLKSGTASVVCLLNNFYPREAKVQWKVDNALQSGNSQESVTEQDSKDSTYSLSSTLTLSKADYEKHKVYACEVTHQGLSSPVTKSFNRGEC
heavy 1: QVQLVQSGAEVKKPGSSVKVSCKASGYTFADYEIHWVREAPGQGLEWMGAIHPGSGGTAYAQKFQGRVTLTADESSTTAYMELSSLRSEDTAVYYCTRYYSFAYWGQGTLVTVSSASTKGPSVFPLAPCSRSTSESTAALGCLVEDYFPEPVTVSWNSGALTSGVHTFPAVLQSSGLYSLSSVVTVPSSSLGTKTYTCNVDHKPSNTKVDERVESKYGPPCPPCPAPEFEGGPSVFLFPPKPKDTLMISRTPEVTCVVVDVSQEDPEVQFNWYVDGVEVHNAKTKPREEQFNSTYRVVSVLTVLHQDWLNGKEYKCKVSNKGLASSIEKTISKAKGQPREPQVCTLPPSQEEMTKNQVSLSCAVKGFYPSDIAVEWESNGQPENNYKTTPPVLDSDGSFFLVSKLTVDKSRWQEGNVFSCSVMHEALHNHYTQKSLSLSLGK
light 2: QAVVTQEPSLTVSPGGTVTLTCRSSTGAVTTSNYANWVQEKPGQAPRGLIGGTNKRAPWTPARFSGSLLGGKAALTITGAQAEDEAEYYCVLWYSNLWVFGGGTKLTVLGQPKAAPSVTLFPPSSEELQANKATLVCLISDFYPGAVTVAWKADSSPVKAGVETTTPSKQSNNKYAASSYLSLTPEQWKSHRSYSCQVTHEGSTVEKTVAPTECS
heavy 2: EVQLVESGGGLVQPGGSLRLSCAASGFTFNTYAMNWVRKAPGKGLEWVGRIRSKYNNYATYYADSVKDRFTISRDDSKNSLYLQMNSLKTEDTAVYYCVRHGNFGNSYVSWFAYWGQGTLVTVSSASTKGPSVFPLAPCSRSTSESTAALGCLVKDYFPEPVTVSWNSGALTSGVHTFPAVLQSSGLYSLSSVVTVPSSSLGTKTYTCNVDHKPSNTKVDKRVESKYGPPCPPCPAPEFEGGPSVFLFPPKPKDTLMISRTPEVTCVVVDVSQEDPEVQFNWYVDGVEVHNAKTKPREEQFNSTYRVVSVLTVLHQDWLNGKEYKCKVSNKGLASSIEKTISKAKGQPREPQVYTLPPCQEEMTKNQVSLWCLVKGFYPSDIAVEWESNGQPENNYKTTPPVLDSDGSFFLYSKLTVDKSRWQEGNVFSCSVMHEALHNHYTQKSLSLSLGK
notes: also called GPC3 x CD3 κλ003; GPC3×CD3κλ bispecific antibody
As for B1, the binding result is given as “no binding”.
